Assay results: patent US6869778
Substitutions are numbered along the chain they refer to. Numbers in names are those of the source. Where “and” joins values, the source holds several entries; their conditions need not be identical. Equal values may be shown once.

T1: lys-plasminogen, P00747
T1 chain: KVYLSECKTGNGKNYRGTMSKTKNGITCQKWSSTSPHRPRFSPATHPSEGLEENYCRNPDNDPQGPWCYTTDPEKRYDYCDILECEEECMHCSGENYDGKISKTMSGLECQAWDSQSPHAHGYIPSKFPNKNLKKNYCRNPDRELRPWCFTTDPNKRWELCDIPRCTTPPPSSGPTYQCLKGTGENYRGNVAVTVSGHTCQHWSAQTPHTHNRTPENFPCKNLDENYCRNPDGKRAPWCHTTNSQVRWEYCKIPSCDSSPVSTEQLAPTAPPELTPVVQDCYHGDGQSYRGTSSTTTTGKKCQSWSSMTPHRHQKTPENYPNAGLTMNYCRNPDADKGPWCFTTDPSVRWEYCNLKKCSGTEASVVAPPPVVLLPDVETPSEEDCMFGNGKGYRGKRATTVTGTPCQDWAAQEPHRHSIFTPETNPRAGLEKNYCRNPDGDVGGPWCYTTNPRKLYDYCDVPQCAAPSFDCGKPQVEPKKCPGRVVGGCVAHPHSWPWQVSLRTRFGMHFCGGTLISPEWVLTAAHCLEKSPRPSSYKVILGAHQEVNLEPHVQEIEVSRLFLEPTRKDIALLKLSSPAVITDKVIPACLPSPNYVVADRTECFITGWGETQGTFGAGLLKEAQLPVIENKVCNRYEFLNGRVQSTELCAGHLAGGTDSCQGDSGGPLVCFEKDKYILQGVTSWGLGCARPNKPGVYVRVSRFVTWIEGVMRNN

B1: wild type human t-PA, two-chain form (protein)
chain 1: SYQVICRDEKTQMIYQQHQSWLRPVLRSNRVEYCWCNSGRAQCHSVPVKSCSEPRCFNGGTCQQALYFSDFVCQCPEGFAGKCCEIDTRATCYEDQGISYRGTWSTAESGAECTNWNSSALAQKPYSGRRPDAIRLGLGNHNYCRNPDRDSKPWCYVFKAGKYSSEFCSTPACSEGNSDCYFGNGSAYRGTHSLTESGASCLPWNSMILIGKVYTAQNPSAQALGLGKHNYCRNPDGDAKPWCHVLKNRRLTWEYCDVPSCSTCGLRQYSQPQFR
chain 2: IKGGLFADIASHPWQAAIFAKHRRSPGERFLCGGILISSCWILSAAHCFQERFPPHHLTVILGRTYRVVPGEEEQKFEVEKYIVHKEFDDDTYDNDIALLQLKSDSSRCAQESSVVRTVCLPPADLQLPDWTECELSGYGKHEALSPFYSERLKEAHVRLYPSSRCTSQHLLNRTVTDNMLCAGDTRSGGPQANLHDACQGDSGGPLVCLNDGRMTLVGIISWGLGCGQKDVPGVYTKVTNYLDWIRDNMRP
B2: t-PA/R275E, single-chain form (protein)
chain: SYQVICRDEKTQMIYQQHQSWLRPVLRSNRVEYCWCNSGRAQCHSVPVKSCSEPRCFNGGTCQQALYFSDFVCQCPEGFAGKCCEIDTRATCYEDQGISYRGTWSTAESGAECTNWNSSALAQKPYSGRRPDAIRLGLGNHNYCRNPDRDSKPWCYVFKAGKYSSEFCSTPACSEGNSDCYFGNGSAYRGTHSLTESGASCLPWNSMILIGKVYTAQNPSAQALGLGKHNYCRNPDGDAKPWCHVLKNRRLTWEYCDVPSCSTCGLRQYSQPQFEIKGGLFADIASHPWQAAIFAKHRRSPGERFLCGGILISSCWILSAAHCFQERFPPHHLTVILGRTYRVVPGEEEQKFEVEKYIVHKEFDDDTYDNDIALLQLKSDSSRCAQESSVVRTVCLPPADLQLPDWTECELSGYGKHEALSPFYSERLKEAHVRLYPSSRCTSQHLLNRTVTDNMLCAGDTRSGGPQANLHDACQGDSGGPLVCLNDGRMTLVGIISWGLGCGQKDVPGVYTKVTNYLDWIRDNMRP
B3: t-PA/H417E, two-chain form (protein)
chain 1: B1 chain 1
chain 2: B1 chain 2 with H142E
B4: t-PA/H417D, two-chain form (protein)
chain 1: B1 chain 1
chain 2: B1 chain 2 with H142D
B5: t-PA/R275E,H417E, single-chain form (protein)
chain: B2 chain with H417E
B6: t-PA/R275E,H417D, single-chain form (protein)
chain: B2 chain with H417D

Biological target: stimulatory thirteen amino acid peptide P368

Protein	stimulation of plasminogen activation by co-factor (indirect chromogenic assay)
B1	strongly stimulated
B2	moderately

Biological target: fibrinogen

Protein	stimulation of plasminogen activation by co-factor (indirect chromogenic assay)
B1	strongly stimulated
B2	stimulated strongly

Biological target: T1, lys-plasminogen, P00747

Protein	Kcat of plasminogen activation in the absence of a cofactor	Kcat of plasminogen activation in the presence of fibrin	Kcat/Km of plasminogen activation in the absence of a cofactor	Kcat/Km of plasminogen activation in the presence of fibrin	Km of plasminogen activation in the absence of a cofactor	Km of plasminogen activation in the presence of fibrin	fold reduction of activity toward plasminogen without co-factor, against single chain t-PA/R275E
B1	0.093 s⁻¹ and 0.16 s⁻¹	0.11 s⁻¹ and 0.08 s⁻¹	14000 M⁻¹ s⁻¹ and 16000 M⁻¹ s⁻¹	6.5e+06 M⁻¹ s⁻¹ and 4e+06 M⁻¹ s⁻¹	6.7 µM and 10 µM	0.017 µM and 0.02 µM	–
B3	0.099 s⁻¹	0.1 s⁻¹	11000 M⁻¹ s⁻¹	4.5e+06 M⁻¹ s⁻¹	8.7 µM	0.022 µM	–
B4	0.11 s⁻¹	0.11 s⁻¹	16000 M⁻¹ s⁻¹	4.6e+06 M⁻¹ s⁻¹	6.8 µM	0.024 µM	–
B2	0.014 s⁻¹ and 0.038 s⁻¹	0.16 s⁻¹ and 0.1 s⁻¹	1500 M⁻¹ s⁻¹ and 1300 M⁻¹ s⁻¹	9.4e+06 M⁻¹ s⁻¹ and 5e+06 M⁻¹ s⁻¹	–	0.017 µM and 0.02 µM	–
B5	0.002 s⁻¹	0.17 s⁻¹	240 M⁻¹ s⁻¹	6.1e+06 M⁻¹ s⁻¹	8.5 µM	0.028 µM	reduced by a factor of approximately 14 or 6, respectively
B6	0.001 s⁻¹	0.23 s⁻¹	110 M⁻¹ s⁻¹	5.3e+06 M⁻¹ s⁻¹	9.4 µM	0.043 µM	reduced by a factor of approximately 14 or 6, respectively

Biological target: soluble fibrin monomers (DESAFIB)

Protein	Fold stimulation of kcat/Km by fibrin	fibrin selectivity factor (specific activity in the presence of fibrin over that in the presence of fibrinogen)	stimulation of plasminogen activation by co-factor (indirect chromogenic assay)
B1	460 fold and 250 fold	1.5 for two-chain t-PA	strongly stimulated
B3	410 fold	–	–
B4	290 fold	–	–
B2	6300 fold and 3800 fold	1.0 for single chain t-PA/R275E	stimulated strongly
B5	25400 fold	–	–
B6	48200 fold	–	–
